This note sets out measurements from PMC6345502, “Vancomycin does not affect the enzymatic activities of purified VanSA” (PLoS ONE, 2019).

Sequences and labels used below:
B3: full-length VanSA (enzyme)
chain: MVIKLKNKKNDYSKLERKLYMYIVAIVVVAIVFVLYIRSMIRGKLGDWILSILENKYDLNHLDAMKLYQYSIRNNIDIFIYVAIVISILILCRVMLSKFAKYFDEINTGIDVLIQNEDKQIELSAEMDVMEQKLNTLKRTLEKREQDAKLAEQRKNDVVMYLAHDIKTPLTSIIGYLSLLDEAPDMPVDQKAKYVHITLDKAYRLEQLIDEFFEITRYNLQTITLTKTHIDLYYMLVQMTDEFYPQLSAHGKQAVIHAPEDLTVSGDPDKLARVFNNILKNAAAYSEDNSIIDITAGLSGDVVSIEFKNTGSIPKDKLAAIFEKFYRLDNARSSDTGGAGLGLAIAKEIIVQHGGQIYAESNDNYTTFRVELPAMPDLVDKRRS
notes: VanS sensor histidine kinase of type-A vancomycin resistance in enterococci, Uniprot Q06240, full length; the construct has 392 amino acids including the C-terminal PG-6xHis tag; Membrane protein; kept in 10 mM LDAO for SEC and storage and in 9 mM C12E8 for the SPR injections; source: E. coli BL21(DE3), purified from the membrane fraction (DDM extraction, IMAC, Sephacryl S-300 in LDAO)

In one data set the target is T1, Phospho-cytosolic VanSA (enterococci, UniProt Q06240 98-384, phospho-histidine at the conserved histidine (autophosphorylated; not expected to be fully phosphorylated)).
T1 construct: two residues at the N-terminus contributed by the vector pETCH; VanS of type-A vancomycin resistance in enterococci, Uniprot Q06240, residues 98-384, beginning at K98; also called autophosphorylated cVanSA; phospho-cVanSA
T1 sequence: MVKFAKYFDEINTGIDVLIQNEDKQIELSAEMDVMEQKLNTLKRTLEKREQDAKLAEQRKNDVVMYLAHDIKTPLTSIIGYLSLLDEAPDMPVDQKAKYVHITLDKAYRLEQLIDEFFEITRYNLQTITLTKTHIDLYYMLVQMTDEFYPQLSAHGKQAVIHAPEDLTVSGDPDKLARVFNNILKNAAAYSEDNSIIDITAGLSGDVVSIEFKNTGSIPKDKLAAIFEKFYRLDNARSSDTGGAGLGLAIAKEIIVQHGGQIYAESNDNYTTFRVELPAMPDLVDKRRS
Put plainly: SPR; 1D4-tagged VanRA captured on Rho1D4 antibody amine-coupled to a GLC chip (ProteOn XPR36); cytosolic histidine kinase as analyte; 25°C; 50 mM BIS-TRIS pH 6.0, 150 mM NaCl, 10 mM MgCl2, 0.005% Tween 20; one-site model fitted to equilibrium responses; concentrations for dimers. The settings on record: both partners purified. On the technique in general: SPR reads the build-up and loss of mass on a sensor chip optically.

Data set [1] has as its target T2, cytosolic domain of VanSA (enterococci, UniProt Q06240 98-384).
T2 construct: two residues at the N-terminus contributed by the vector pETCH; VanS of type-A vancomycin resistance in enterococci, Uniprot Q06240, residues 98-384, beginning at K98 just after the second predicted transmembrane helix; also called cVanSA; Cytosolic VanSA; source: E. coli BL21(DE3), purified (IMAC, HiTrap Q, S-300)
T2 sequence: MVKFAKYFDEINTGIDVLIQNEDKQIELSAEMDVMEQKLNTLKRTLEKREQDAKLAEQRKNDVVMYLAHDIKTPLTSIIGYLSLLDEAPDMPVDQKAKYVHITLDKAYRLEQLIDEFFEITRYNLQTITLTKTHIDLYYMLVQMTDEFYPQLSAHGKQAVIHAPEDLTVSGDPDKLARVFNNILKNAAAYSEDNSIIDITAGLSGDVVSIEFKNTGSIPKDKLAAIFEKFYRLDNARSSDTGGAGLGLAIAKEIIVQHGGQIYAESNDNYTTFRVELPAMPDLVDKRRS
Described as above. The settings on record: both partners purified.

The target of the data set “full-length VanSA” is B3. Nature of the data set: SPR; 1D4-tagged VanRA captured on Rho1D4 antibody on a GLC chip; full-length VanSA as analyte in running buffer + 9 mM C12E8; 25°C; 50 mM BIS-TRIS pH 6.0, 150 mM NaCl, 10 mM MgCl2, 0.005% Tween 20; one-site model fitted to equilibrium responses; concentrations for dimers. The settings on record: both partners purified.
The target in data set [2] is T2, cytosolic domain of VanSA. Nature of the data set: fluorescence polarisation; fluorescence anisotropy; cVanSA titrated into 40 nM fluorescein-labeled VanRA; 50 mM Tris pH 7.8, 100 mM NaCl, 5 mM MgCl2, 0.05% Tween-20; room temperature. The settings on record: both partners purified. (In general: Polarisation of emitted light reports the rotation of a fluorescent probe.)

Data set [3] deals with the molecule itself. Put plainly: SEC; Sephacryl S-300 in 50 mM Tris pH 7.8, 500 mM NaCl, 5 mM MgCl2, 10 mM LDAO; elution compared with the 80 kDa apotransferrin standard. For orientation: Size exclusion chromatography separates by hydrodynamic size, large species first.

Several values for one entry are separate records, joined by “and”; a condition that tells them apart may be missing. Equal entries are not always repeated.

B1: 1D4-tagged VanRA (natural protein)
chain: MSDKILIVDDEHEIADLVELYLKNENYTVFKYYTAKEALECIDKSEIDLAILDIMLPGTSGLTICQKIRDKHTYPIIMLTGKDTEVDKITGLTIGADDYITKPFRPLELIARVKAQLRRYKKFSGVKEQNENVIVHSGLVINVNTHECYLNEKQLSLTPTEFSILRILCENKGNVVSSELLFHEIWGDEYFSKSNNTITVHIRHLREKMNDTIDNPKYIKTVWGVGYKIEK
notes: VanR response regulator of type-A vancomycin resistance in enterococci, Uniprot Q06239; the 1D4 tag and linker add 13 residues to the wild-type VanRA construct; Expression and purification of this tagged construct are not described; also called tagged VanRA construct; immobilized VanRA
Usually Kd stands for the equilibrium constant for the complex coming apart. For the molecule B1, the values for the Kd (in the data set with Phospho-cytosolic VanSA; in data set [1]; with full-length VanSA) were 2.5 ± 0.8 µM, 6.8 ± 1.4 µM and 1.9 ± 0.7 µM, respectively.

B2: fluorescently-labeled VanRA (natural protein, enterococci)
chain: CMSDKILIVDDEHEIADLVELYLKNENYTVFKYYTAKEALECIDKSEIDLAILDIMLPGTSGLTICQKIRDKHTYPIIMLTGKDTEVDKITGLTIGADDYITKPFRPLELIARVKAQLRRYKKFSGVKEQNENVIVHSGLVINVNTHECYLNEKQLSLTPTEFSILRILCENKGNVVSSELLFHEIWGDEYFSKSNNTITVHIRHLREKMNDTIDNPKYIKTVWGVGYKIEK
modifications: fluorescein maleimide on the cysteine introduced at the N-terminus
notes: additional cysteine at the N-terminus, introduced by site-directed mutagenesis instead of the glycine of the wild-type construct; VanR response regulator of type-A vancomycin resistance in enterococci, Uniprot Q06239; Expression and purification of the cysteine mutant are not described; After labelling it was passed over Sephacryl S-100 HR; also called fluorescein-labeled VanRA; …
As for B2, the Kd in data set [2] was 0.2 µM and 0.1 to 1 µM.

Regarding B3, the binding result in data set [3] is listed as “binds”.
